Experimental data as given in paper PMC4967961.

Molecular target: HuR full-length (FL-HuR, rHuR) (UniProt Q15717 1-326)
Test: EMSA; EMSA: 20 mM Tris-HCl pH 7.8, 150 mM KCl, 2 mM MgCl2, 0.1% Triton X-100, 0.5 mM DTT, heparin 5 mg/ml, BSA 1 mg/ml, 10% glycerol, on ice 15 min; 6% native PAGE, 0

Chain of HuR full-length (FL-HuR, rHuR) (Q15717 whole entry): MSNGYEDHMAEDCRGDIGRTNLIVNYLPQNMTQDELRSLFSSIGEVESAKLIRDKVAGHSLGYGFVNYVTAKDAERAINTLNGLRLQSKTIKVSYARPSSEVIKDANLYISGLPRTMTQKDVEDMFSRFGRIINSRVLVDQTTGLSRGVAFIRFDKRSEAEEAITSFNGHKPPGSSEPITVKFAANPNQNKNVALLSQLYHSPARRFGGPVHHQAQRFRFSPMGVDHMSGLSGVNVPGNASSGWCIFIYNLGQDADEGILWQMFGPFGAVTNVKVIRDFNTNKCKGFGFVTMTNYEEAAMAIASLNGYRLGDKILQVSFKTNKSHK

Binder	Kd [nM]	binding result
UGGAGUGUGACAAUGGUGUUUG (ssRNA) [miR-122 (5p)]	50	
AUUAUUUAUUAUUUAUUUAUUAUUUAUUUAUUUA (ssRNA) [TNF-alpha 3'UTR ARE RNA]		binds
